Data: patent US20030175679A1, “Methods for cell screening of compounds capable of modulating the activity of ubiquitin-ligase scf complexes and their uses” (priority 1999, published 2003)

Test system: Yeast cells
Experiment: Stability of Ha-labeled hybrid proteins expressed from the GAL1 promoter, measured with anti-Ha antibodies
Assay type: cell-based, S. cerevisiae
[1] = in the absence of methionine (-Met)
[2] = repressive conditions, in the presence of methionine (+Met)

| Molecule | half-life of the hybrid protein [1] | half-life of the hybrid protein [2] |
| --- | --- | --- |
| Ha-Met30: full-length Met30 protein with a repetition of 3 hemagglutinin (Ha) antigenic units at its amino-terminal end (protein, UniProt P39014 1-640, looked up, full-length N-terminal 3x HA tag, full-length Met30 protein with a repetition of 3 hemagglutinin (Ha) antigenic units at its amino-terminal end) MRRERQRMMSFEDKDKDDLDNSNSNNSSEMTDTAMMPPLKRLLITGSSDDLAQGSSGKKKMTMATRSPSSSPDLATNDSGTRVQPLPEYNFTKFCYRHNPDIQFSPTHTACYKQDLKRTQEINANIAKLPLQEQSDIHHIISKYSNSNDKIRKLILDGILSTSCFPQLSYISSLVTHMIKIDFISILPQELSLKILSYLDCQSLCNATRVCRKWQKLADDDRVWYHMCEQHIDRKCPNCGWGLPLLHMKRARIQQNSTGSSSNADIQTQTTRPWKVIYRERFKVESNWRKGHCRIQEFKGHMDGVLTLQFNYRLLFTGSYDSTIGIWDLFTGKLIRRLSGHSDGVKTLYFDDRKLITGSLDKTIRVWNYITGECISTYRGHSDSVLSVDSYQKVIVSGSADKTVKVWHVESRTCYTLRGHTEWVNCVKLHPKSFSCFSCSDDTTIRMWDIRTNSCLKVFRGHVGQVQKIIPLTIKDVENLATDNTSDGSSPQDDPTMTDGADESDTPSNEQETVLDENIPYPTHLLSCGLDNTIKLWDVKTGKCIRTQFGHVEGVWDIAADNFRIISGSHDGSIKVWDLQSGKCMHTFNGRRLQRETQHTQTQSLGDKVAPIACVCIGDSECFSGDEFGCVKMYKFDLND | ~20 min | do not modify the half-life |
| Ha-Met4: Met4 protein derivative with three hemagglutinin (Ha) antigenic units at its amino-terminal end, expressed in yeast under the GAL1 promoter (protein, UniProt P32389 1-672, looked up, N-terminal 3x HA tag, Met4 protein derivative with three hemagglutinin (Ha) antigenic units at its amino-terminal end, expressed in yeast under the GAL1 promoter) Transcriptional activator of …: MKQEQSHEGDSYSTEFINLFGKDTATHPSSNNGANNNGMGSTNSLDQFVATASSSSSLVTSSENRRPLIGDVTNRGNTNLYDHAVTPEILLEQLAYVDNFIPSLDNEFSNVDWNVNTTHNNANNNGADTFSSINANPFDLDEQLAIELSAFADDSFIFPDEDKPSNNNNNSNNGNDDHSNHDVLHEDPSTNNRQRNPHFLTQRRNTFLTSQYDQSKSRFSSKNKRNGNNGETNNFGDNMQNNHPFEPNFMGSPSQFPADATNMTSIDHGGFTNVDITSTENNTTGDNGVDALSNLLHRTTHTPNRSSPLSNVTSAQNSSSQQRKHSESKVDSNSDNNSSNKAPNITVPDYSIIPTSVLVTLLPRVNVPNGAYNSLISAGFDNDQIDAIAAIMAYHHQKKIRENNSNNNKNINTNDSQEAPILKNINELLSVLIPPSPAETRGPTTLSTSPSFNEHGVVAEASFLSSILELGIKHPKSNNIHNQRQPSRNDHKISRESDGNNGNDNVHHNNAVIKSSTTRGDEIAKIRSEPTLNASSSDHKENSLKRSHSGDLKNKKVPVDRKYSDNEDDEYDDADLHGFEKKQLIKKELGDDDEDLLIQSKKSHQKKKLKEKELESSIHELTEIAASLQKRIHTLETENKLLKNLVLSSGETEGIKKAESLKKQIFEKVQKE | ~20 min | ~5 min |
| Ha-Met28: full-length Met28 protein with a repetition of 3 hemagglutinin (Ha) antigenic units at its amino-terminal end (protein, UniProt P40573 1-187, looked up, full-length N-terminal 3x HA tag, full-length Met28 protein with a repetition of 3 hemagglutinin (Ha) antigenic units at its amino-terminal end) MSAKQGWEKKSTNIDIASRKGMNVNNLSEHLQNLISSDSELGSRLLSLLLVSSGNAEELISMINNGQDVSQFKKLREPRKGKVAATTAVVVKEEEAPVSTSNELDKIKQERRRKNTEASQRFRIRKKQKNFENMNKLQNLNTQINKLRDRIEQLNKENEFWKAKLNDINEIKSLKLLNDIKRRNMGR | ~20 min | do not modify the half-life |
